B1: TP53-binding protein 1 (Homo sapiens), Q12888 (parent)
chain: MDPTGSQLDSDFSQQDTPCLIIEDSQPESQVLEDDSGSHFSMLSRHLPNLQTHKENPVLDVVSNPEQTAGEERGDGNSGFNEHLKENKVADPVDSSNLDTCGSISQVIEQLPQPNRTSSVLGMSVESAPAVEEEKGEELEQKEKEKEEDTSGNTTHSLGAEDTASSQLGFGVLELSQSQDVEENTVPYEVDKEQLQSVTTNSGYTRLSDVDANTAIKHEEQSNEDIPIAEQSSKDIPVTAQPSKDVHVVKEQNPPPARSEDMPFSPKASVAAMEAKEQLSAQELMESGLQIQKSPEPEVLSTQEDLFDQSNKTVSSDGCSTPSREEGGCSLASTPATTLHLLQLSGQRSLVQDSLSTNSSDLVAPSPDAFRSTPFIVPSSPTEQEGRQDKPMDTSVLSEEGGEPFQKKLQSGEPVELENPPLLPESTVSPQASTPISQSTPVFPPGSLPIPSQPQFSHDIFIPSPSLEEQSNDGKKDGDMHSSSLTVECSKTSEIEPKNSPEDLGLSLTGDSCKLMLSTSEYSQSPKMESLSSHRIDEDGENTQIEDTEPMSPVLNSKFVPAENDSILMNPAQDGEVQLSQNDDKTKGDDTDTRDDISILATGCKGREETVAEDVCIDLTCDSGSQAVPSPATRSEALSSVLDQEEAMEIKEHHPEEGSSGSEVEEIPETPCESQGEELKEENMESVPLHLSLTETQSQGLCLQKEMPKKECSEAMEVETSVISIDSPQKLAILDQELEHKEQEAWEEATSEDSSVVIVDVKEPSPRVDVSCEPLEGVEKCSDSQSWEDIAPEIEPCAENRLDTKEEKSVEYEGDLKSGTAETEPVEQDSSQPSLPLVRADDPLRLDQELQQPQTQEKTSNSLTEDSKMANAKQLSSDAEAQKLGKPSAHASQSFCESSSETPFHFTLPKEGDIIPPLTGATPPLIGHLKLEPKRHSTPIGISNYPESTIATSDVMSESMVETHDPILGSGKGDSGAAPDVDDKLCLRMKLVSPETEASEESLQFNLEKPATGERKNGSTAVAESVASPQKTMSVLSCICEARQENEARSEDPPTTPIRGNLLHFPSSQGEEEKEKLEGDHTIRQSQQPMKPISPVKDPVSPASQKMVIQGPSSPQGEAMVTDVLEDQKEGRSTNKENPSKALIERPSQNNIGIQTMECSLRVPETVSAATQTIKNVCEQGTSTVDQNFGKQDATVQTERGSGEKPVSAPGDDTESLHSQGEEEFDMPQPPHGHVLHRHMRTIREVRTLVTRVITDVYYVDGTEVERKVTEETEEPIVECQECETEVSPSQTGGSSGDLGDISSFSSKASSLHRTSSGTSLSAMHSSGSSGKGAGPLRGKTSGTEPADFALPSSRGGPGKLSPRKGVSQTGTPVCEEDGDAGLGIRQGGKAPVTPRGRGRRGRPPSRTTGTRETAVPGPLGIEDISPNLSPDDKSFSRVVPRVPDSTRRTDVGAGALRRSDSPEIPFQAAAGPSDGLDASSPGNSFVGLRVVAKWSSNGYFYSGKITRDVGAGKYKLLFDDGYECDVLGKDILLCDPIPLDTEVTALSEDEYFSAGVVKGHRKESGELYYSIEKEGQRKWYKRMAVILSLEQGNRLREQYGLGPYEAVTPLTKAADISLDNLVEGKRKRRSNVSSPATPTASSSSSTTPTRKITESPRASMGVLSGKRKLITSEEERSPAKRGRKSATVKPGAVGAGEFVSPCESGDNTGEPSALEEQRGPLPLNKTLFLGYAFLLTMATTSDKLASRSKLPDGPTGSSEEEEEFLEIPPFNKQYTESQLRAGAGYILEDFNEAQCNTAYQCLLIADQHCRTRKYFLCLASGIPCVSHVWVHDSCHANQLQNYRNYLLPAGYSLEEQRILDWQPRENPFQNLKVLLVSDQQQNFLELWSEILMTGGAASVKQHHSSAHNKDIALGVFDVVVTDPSCPASVLKCAEALQLPVVSQEWVIQCLIVGERIGFKQHPKYKHDYVSH

Variants of B1 are the subject of this experiment. To be noted: with h4_human H4C16, P62805.
D1521R: the “effect of a mutation on the interaction” value is “disrupting interaction strength”.

Values taken from IntAct's records for PubMed 27153538.
